The test system of series [1] is T1, DNA polymerase 3173 (uncultured hot spring virus (Octopus Spring)).
T1 sequence: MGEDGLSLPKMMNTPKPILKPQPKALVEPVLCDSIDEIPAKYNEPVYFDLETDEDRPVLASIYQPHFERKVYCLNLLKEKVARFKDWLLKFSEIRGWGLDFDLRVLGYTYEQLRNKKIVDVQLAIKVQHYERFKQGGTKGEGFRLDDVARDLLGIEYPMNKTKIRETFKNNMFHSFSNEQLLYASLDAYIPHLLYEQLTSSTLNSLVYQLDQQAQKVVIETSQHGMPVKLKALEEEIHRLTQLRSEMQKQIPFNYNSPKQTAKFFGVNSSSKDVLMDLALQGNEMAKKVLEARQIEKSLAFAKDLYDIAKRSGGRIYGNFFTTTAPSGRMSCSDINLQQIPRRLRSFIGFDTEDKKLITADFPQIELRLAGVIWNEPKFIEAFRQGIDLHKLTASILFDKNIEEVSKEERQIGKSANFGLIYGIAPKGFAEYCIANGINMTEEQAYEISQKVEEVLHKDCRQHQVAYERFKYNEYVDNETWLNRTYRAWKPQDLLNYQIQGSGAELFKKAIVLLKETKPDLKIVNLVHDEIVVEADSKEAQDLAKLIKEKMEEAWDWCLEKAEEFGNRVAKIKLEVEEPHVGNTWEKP
The conditions noted are these: dNTP incorporation, 60 C, 2 mM MgSO4; background <100 cpm.

Series [2] has as its system T2, DNA polymerase clone 1128 (uncultured hot spring virus (Great Boiling Spring)).
T2 sequence: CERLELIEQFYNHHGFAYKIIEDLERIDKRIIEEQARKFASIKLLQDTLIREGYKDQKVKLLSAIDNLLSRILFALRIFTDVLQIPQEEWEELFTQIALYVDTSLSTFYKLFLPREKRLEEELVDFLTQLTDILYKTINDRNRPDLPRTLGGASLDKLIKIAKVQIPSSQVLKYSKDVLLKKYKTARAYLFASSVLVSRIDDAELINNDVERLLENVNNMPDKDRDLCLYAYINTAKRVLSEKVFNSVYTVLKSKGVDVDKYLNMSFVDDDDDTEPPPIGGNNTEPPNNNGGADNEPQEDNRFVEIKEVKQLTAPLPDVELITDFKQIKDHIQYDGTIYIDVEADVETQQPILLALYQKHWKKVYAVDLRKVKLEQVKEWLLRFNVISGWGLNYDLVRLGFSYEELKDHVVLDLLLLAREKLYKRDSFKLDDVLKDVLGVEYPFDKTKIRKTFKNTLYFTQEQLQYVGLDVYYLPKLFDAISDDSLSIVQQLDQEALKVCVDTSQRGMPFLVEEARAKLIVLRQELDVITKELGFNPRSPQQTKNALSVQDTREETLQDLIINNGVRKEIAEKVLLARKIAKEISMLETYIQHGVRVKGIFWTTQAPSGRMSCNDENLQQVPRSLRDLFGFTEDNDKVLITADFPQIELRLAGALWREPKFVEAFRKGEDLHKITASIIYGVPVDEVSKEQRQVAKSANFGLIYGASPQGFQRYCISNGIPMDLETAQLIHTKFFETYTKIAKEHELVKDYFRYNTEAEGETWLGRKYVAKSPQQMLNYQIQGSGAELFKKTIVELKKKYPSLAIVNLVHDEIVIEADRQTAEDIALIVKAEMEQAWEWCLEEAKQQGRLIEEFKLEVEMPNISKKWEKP
The conditions noted are these: dNTP incorporation; background <500.

Series [3] deals with T3, DNA polymerase clone 1937 (uncultured hot spring virus (Great Boiling Spring)).
T3 sequence: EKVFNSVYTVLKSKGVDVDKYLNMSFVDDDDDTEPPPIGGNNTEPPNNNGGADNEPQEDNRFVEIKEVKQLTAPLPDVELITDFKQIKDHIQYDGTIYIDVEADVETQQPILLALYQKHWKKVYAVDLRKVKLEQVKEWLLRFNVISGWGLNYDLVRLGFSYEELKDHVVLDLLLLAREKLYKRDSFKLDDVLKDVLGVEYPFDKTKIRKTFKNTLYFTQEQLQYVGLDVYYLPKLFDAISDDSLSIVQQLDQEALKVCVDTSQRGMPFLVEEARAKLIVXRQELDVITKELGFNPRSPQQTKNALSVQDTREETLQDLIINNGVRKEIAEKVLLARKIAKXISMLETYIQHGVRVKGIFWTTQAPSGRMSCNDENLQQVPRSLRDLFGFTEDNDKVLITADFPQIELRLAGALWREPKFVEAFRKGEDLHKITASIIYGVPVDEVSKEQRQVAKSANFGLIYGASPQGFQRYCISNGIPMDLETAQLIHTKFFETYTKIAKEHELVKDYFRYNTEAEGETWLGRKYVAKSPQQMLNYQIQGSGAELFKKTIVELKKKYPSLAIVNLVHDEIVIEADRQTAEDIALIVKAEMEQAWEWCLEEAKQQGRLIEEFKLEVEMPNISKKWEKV
The settings on record: dNTP incorporation; background <500.

For series [4], the system named is T4, DNA polymerase clone 2783GBS (uncultured hot spring virus (Great Boiling Spring)).
T4 sequence: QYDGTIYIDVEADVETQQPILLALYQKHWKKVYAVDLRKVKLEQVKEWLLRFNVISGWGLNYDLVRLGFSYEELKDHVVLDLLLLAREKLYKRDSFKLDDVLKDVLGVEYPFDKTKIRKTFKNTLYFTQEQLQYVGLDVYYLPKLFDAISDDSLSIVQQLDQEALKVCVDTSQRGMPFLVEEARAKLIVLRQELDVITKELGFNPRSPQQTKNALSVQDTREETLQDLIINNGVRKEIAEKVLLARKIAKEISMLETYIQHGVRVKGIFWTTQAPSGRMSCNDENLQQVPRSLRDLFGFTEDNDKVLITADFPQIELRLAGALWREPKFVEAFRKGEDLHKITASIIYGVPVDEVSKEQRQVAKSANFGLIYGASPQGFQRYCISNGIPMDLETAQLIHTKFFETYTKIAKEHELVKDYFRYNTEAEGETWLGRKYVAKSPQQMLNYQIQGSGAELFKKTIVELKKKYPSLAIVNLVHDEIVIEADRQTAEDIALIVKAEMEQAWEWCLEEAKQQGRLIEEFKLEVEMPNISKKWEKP
The settings on record: dNTP incorporation; background <500.

As for activated calf thymus DNA, the activity in series [1] is greater than 1000 cpm; in series [2], 16400 cpm; in series [3] it was 70300 cpm; in series [4], 11500 cpm.

The values are drawn from US20100291638.
